In PMC9898148 (Structure (London, England : 1993), 2022):

T1: hNAA35^28-725 (large auxiliary subunit of human NatC, N-terminally truncated) (human, UniProt Q5VZE5 28-725)
T1 sequence (looked up): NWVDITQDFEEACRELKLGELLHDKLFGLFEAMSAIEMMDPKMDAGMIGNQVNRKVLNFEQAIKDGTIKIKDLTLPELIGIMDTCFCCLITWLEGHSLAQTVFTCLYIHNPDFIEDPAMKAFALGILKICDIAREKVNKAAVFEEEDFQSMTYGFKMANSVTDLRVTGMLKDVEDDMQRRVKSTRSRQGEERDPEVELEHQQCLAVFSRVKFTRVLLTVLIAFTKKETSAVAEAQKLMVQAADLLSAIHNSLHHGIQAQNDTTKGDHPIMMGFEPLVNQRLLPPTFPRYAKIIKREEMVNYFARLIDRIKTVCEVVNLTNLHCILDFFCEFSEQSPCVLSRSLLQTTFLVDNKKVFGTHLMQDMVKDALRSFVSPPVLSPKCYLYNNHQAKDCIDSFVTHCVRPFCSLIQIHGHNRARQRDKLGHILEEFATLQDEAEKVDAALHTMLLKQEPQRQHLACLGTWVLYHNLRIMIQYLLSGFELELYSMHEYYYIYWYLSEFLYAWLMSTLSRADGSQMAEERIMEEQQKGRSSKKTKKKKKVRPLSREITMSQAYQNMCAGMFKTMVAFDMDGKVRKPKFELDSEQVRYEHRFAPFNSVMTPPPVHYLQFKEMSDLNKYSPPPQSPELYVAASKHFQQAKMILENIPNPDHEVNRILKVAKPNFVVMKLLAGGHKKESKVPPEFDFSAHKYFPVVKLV

T2: hNAA30^211-362 (catalytic subunit of human NatC, N-terminally truncated) (human, UniProt Q147X3 211-362)
T2 sequence (looked up): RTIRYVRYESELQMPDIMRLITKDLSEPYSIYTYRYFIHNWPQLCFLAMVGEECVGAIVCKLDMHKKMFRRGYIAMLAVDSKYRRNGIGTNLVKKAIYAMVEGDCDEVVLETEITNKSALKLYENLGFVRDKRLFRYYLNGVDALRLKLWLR


Legend:
[1] = target: T1, hNAA35^28-725 (large auxiliary subunit …); assay: cryo-EM structure
[2] = target: T2, hNAA30^211-362 (catalytic subunit of …); assay: cryo-EM structure

binding result [1] | binding result [2] | Binder
binds |  | hNAA38^1-125 (small auxiliary subunit of human NatC, full length) (natural protein, UniProt Q9BRA0 1-125, looked up) MAGAGPTMLLREENGCCSRRQSSSSAGDSDGEREDSAAERARQQLEALLNKTMRIRMTDGRTLVGCFLCTDRDCNVILGSAQEFLKPSDSFSAGEPRVLGLAMVPGHHIVSIEVQRESLTGPPYL
 | binds | {CoA‑Ac}-MLGPE-NH2 [CoA-Ac-MLGPE-NH2 bisubstrate inhibitor]
